Patent US20110311550A1 (Scripps Research, published 2011)
Changes are numbered by the printed parent chain.

Assays:
[1] = biological target: T1, HCV E1E2 complex, isolate H77 (genotype 1a) (hepatitis C virus genotype 1a, isolate …, UniProt P27958 192-383; P27958 384-746); assay: Fab ELISA on unmasked E1E2
[2] = biological target: E1E2 (Env) of HCV isolate OH8 (genotype 1b) on HCVpp (hepatitis C virus, isolate OH8); assay: cell-based or functional assay
[3] = biological target: E1E2 (Env) of HCV isolate UKN4.21.16 (genotype 4) on HCVpp (hepatitis C virus, isolate UKN4.21.16); assay: cell-based or functional assay
[4] = biological target: E1E2 (Env) of HCV isolate H (genotype 1a) on HCVpp (hepatitis C virus, isolate H); assay: cell-based or functional assay
[5] = biological target: E1E2 (Env) of HCV isolate UKN2B1.1 (genotype 2b) on HCVpp (hepatitis C virus, isolate UKN2B1.1); assay: cell-based or functional assay
[6] = biological target: E1E2 (Env) of HCV isolate UKN1B12.16 (genotype 1b) on HCVpp (hepatitis C virus, isolate UKN1B12.16); assay: cell-based or functional assay
[7] = biological target: E1E2 (Env) of HCV isolate J6 (genotype 2a) on HCVpp (hepatitis C virus, isolate J6, UniProt P26660 192-383; P26660 384-750); assay: cell-based or functional assay
[8] = biological target: VSV (control pseudotype virus envelope); assay: cell-based or functional assay
[9] = biological target: E1E2 (Env) of HCV isolate UKN2A1.2 (genotype 2a) on HCVpp (hepatitis C virus, isolate UKN2A1.2); assay: cell-based or functional assay
[10] = biological target: E1E2 (Env) of HCV isolate UKN5.15.7 (genotype 5) on HCVpp (hepatitis C virus, isolate UKN5.15.7); assay: cell-based or functional assay
[11] = biological target: T1, HCV E1E2 complex, isolate H77 (genotype …); assay: Fab screen after panning on E1E2 (H77)
[12] = biological target: T1, HCV E1E2 complex, isolate H77 (genotype …); assay: apparent affinity: half-maximal binding, ELISA on lectin-captured E1E2
[13] = biological target: HCV E1E2 complex, isolate HCV-1 (genotype 1a), vaccinia-expressed (hepatitis C virus genotype 1a, isolate …, UniProt P26664 192-383; P26664 384-746); assay: as above

B1: Fab P3 (Fab, V domains shown)
VH: EVQLLESGGGVVQPGKSLRLSCAVSGFTLNTFAMHWVRQVPGKGLEWVALTSHDGSRQDYADSVRGRFTISRDNSKSMVFLLMNSLRAEDTAVYYCVRGGPAYYTYNDVLTGYAYVVGDFWGQGTLVTVSS
VL: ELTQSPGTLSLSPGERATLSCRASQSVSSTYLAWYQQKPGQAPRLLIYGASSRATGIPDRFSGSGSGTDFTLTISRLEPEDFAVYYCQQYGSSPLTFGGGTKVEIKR
- binding result [1]: binds

B2: Fab N3 (Fab, V domains shown)
VH: VQLLEQSGAEVKKPGDSLRISCKMSGDSLVWIGWVRQKPGQGLEWMGIINPGDSATNIYPGDSDTRYGPSFQGQVTISIDKSTSTAYLQWNAVKASDTGIYYCARHVPVPISGTFLWREREMHDLGYFDDWGQGTLVIVSS
VL: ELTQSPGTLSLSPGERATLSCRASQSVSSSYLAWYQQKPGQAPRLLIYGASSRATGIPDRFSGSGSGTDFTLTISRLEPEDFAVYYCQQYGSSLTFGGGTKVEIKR
notes: Soluble Fab
- binding result [1]: binds

B3: MAb AR3B (antibody, V domains shown)
VH: LEQSGPEVKKPGSSVKVSCKDSGDTFNEPVTWVRQAPGQGLEWIGGIIPAFGVTKYAQKFQGRVIISADASTATAYLELSSLRSEDTAVYYCAKVGLRGIVMVGGLAMNWLDPWGQGTQVTVSS
VL: not shown
- Neutralizing activity (IC50) on HCVpp [2]: 5 µg/mL
- Neutralizing activity (IC50) on HCVpp [3]: 1 µg/mL
- Neutralizing activity (IC50) on HCVpp [4]: 1 µg/mL
- Neutralizing activity (IC50) on HCVpp [5]: 10 µg/mL
- Neutralizing activity (IC50) on HCVpp [6]: 1 µg/mL
- Neutralizing activity (IC50) on HCVpp [7]: 10 µg/mL
- Neutralizing activity (IC50) on control pseudotype virus [8]: > 50 µg/mL
- Neutralizing activity (IC50) on HCVpp [9]: 5 µg/mL
- Neutralizing activity (IC50) on HCVpp [10]: 1 µg/mL

B4: Fab U2 (Fab, V domains shown)
VH: VQLLEQSGAEVKRPGSSVKLSCKNSGGTFITQAMSWVRQAPGQGLEWMGGIIPVFGTVNYAQNILDRATATADEDTFSLELRGLRLEDTAVYYCAREVNLKTWNLARPDVFDIWGPGTLVTVSS
VL: ELTQSPSSLSASIGDRVTIPCRASQSILNHLNWYQQKPGQPPKLLIFAASNLQSGVPSRFSGSGSGTDFTLTISSLQTEDFATYYCQQSYSTPRTFGQGTKVEVKR
- binding result [11]: binds

B5: Fab S1 (Fab, V domains shown)
VH: VQLLEQSGAEVKKPGTSVKVSCTASGYIFTSFGISWVRQAPGQGLEWMGRIDTYNGKTNYAQKLQGRVTMTTDTYTSTAYMELRSLTSDDTAVYYCARDDCRSSTCYLAQHNWQAYYHDSWGQGTLVTVSS
VL: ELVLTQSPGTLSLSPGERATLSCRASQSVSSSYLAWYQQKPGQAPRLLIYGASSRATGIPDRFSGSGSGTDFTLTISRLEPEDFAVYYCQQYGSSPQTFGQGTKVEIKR
- binding result [1]: binds

B6: Fab N1 (Fab, V domains shown)
VH: VQLLEQSGPEVKKPGDSLRISCKMSGDSLVTTWIGWVRQKPGQGLEWMGIINPGDSSTNIYPGDSATRYGPSFQGQVTISIDKSTSTAYLQWNAVKPSDTGIYYCARHVPVPISGTFLWREREMHDFGYFDDWGQGTLVIVSS
VL: ELTQSPGTLSLSPGERATLSCRASQSVSSSYLAWYQQKPGQAPRLLIYGASNRAAGIPDRFSGSGSGADFTLTISRLEPEDFAVYYCQQYGSSLITFGQGTRLEIKR
notes: Soluble Fab
- binding result [1]: binds

B7: Fab N2 (Fab, V domains shown)
VH: B6 VH with A94T
VL: ELTQSPGTLSLFPGERATLSCRASQSILGRYLAWYQQKGGRAPRLLIFGASKRATGIPDRFSGSGSGTDFTLTIGRLEPEDFAVYYCQHYGSSITFGQGTRLDIKR
notes: Soluble Fab
- binding result [1]: binds

B8: Fab P1 (Fab, V domains shown)
VH: EVQLLESGGGVVQPGGSLRLSCAASGFTFTSFTMHWVRQAPGKGLEWVALISHDGSNKDYADSVRGRFTVSRDNSKKMVYLQMSSLRPDDAAVYYCARGGPAYYTYSDTLTGYHNVVGDYWGQGTLVTVSS
VL: ELTQSPGTLSLSPGERATLSCRASQVRGFLAWFQQKPGQAPRLLIYGASNRAPGIPDRFSGSGSGTDFTLTISRLEPEDFAVYYCQQYGDSPPITFGQGTRLEIKR
notes: Soluble Fab
- binding result [1]: binds

B9: Fab P1a (Fab, V domains shown)
VH: B8 VH
VL: ELTQSPGTLSLSPGERATLSCRTSQSVSSTYLAWYQQKPGQPPRLLIYGASNRAPGIPDRFSGSGSGTDFTLTISRLEPEDFAVYYCQQYGDSPPITFGQGTRLDIKR
- binding result [1]: binds

B10: MAb AR1B (IgG1 from Fab D1) (antibody, V domains shown)
VH: LESGGGLVQPGGSLRLSCEASGYYFSSFAMSWVRQTPGKGLEWVSSIAGGTLGRTSYRDSVKGRFTISRDNSKNTVFLHMNNLRPEDTAVYYCAKDPLLFAGGPNWFDHWGQGTLVTVSS
VL: not shown
- EC50 [12]: 0.6 nM
- EC50 [13]: 0.4 nM

B11: Fab T1 (Fab, V domains shown)
VH: EVQLLESGGGLVQPGGSLRLSCAASGFTFSRFWMHWVRQAPGKGLVWVARINSDGSSTTYADSVKGRFTISRDNAKNTLYLQMNSLRDEDTAVYFCARGGDSSSPYYYPMDVWGQGTTVAVSS
VL: not shown
- binding result [1]: binds

B12: Fab U1 (Fab, V domains shown)
VH: VQLLEQSGPEVKRPGTSVKMSCKISGGASITQAMSWVRQAPGQGLEWMGGITPIFGTVNYAQKILGRVTITADEDTVSLELSSLKSEDTAVYYCAREVNLKTWNLAHPNVFDVWGQGTMLTVSS
VL: ELTQSPSSLSASVGDRVTITCRASQSISSFLNWYQQKPGKAPKLLIYAASSLQSGVPPRFSGSGSGTDFTLTISSLQPEDFATYYCQQSYSTPRTFGQGTKLEIKR
- binding result [1]: binds

B13: Fab U3 (Fab, V domains shown)
VH: VQLLEQSGAEVKRPGSSVKISCKNSGGTFITQAMSWVRQAPGQGLEWMGGIIPIFGTVNYAQKILGRVTITADEDTVSMELSSLGFEDTAVYYCAREVNLKSWNLAHPDVFDIWGQGTLVTVSS
VL: B12 VL with S28R, F30Y, K43N, A48S, S51N, P58S, S61R, S91R, L102V, I104S
- binding result [11]: binds

B14: Fab O1 (Fab, V domains shown)
VH: VQLLEQSGAEVKKAGESVRLSCKASGYRFGDYWIAWVRQLPGRAPEWMGIIYPDDSDTKYSPSFQGQVTISADKSIRTTFLDWGSLKASDTAIYYCARGCLGAKCYYPHYYYGLDVWGQGTTVIVSS
VL: ELTQSPSSLSASVGDRVTITCRATQGIDNYLNWYQQKPGKPPRLLIYGASSLQSGVPSRFSGGGSGTHFTLTITNLQPEDFATYYCQQSYSTPPETFGQGTKVEIKR
notes: Soluble Fab
- binding result [1]: binds

B15: MAb AR2A (IgG1 from Fab G) (antibody, V domains shown)
VH: LEQSGAEMKKPGASLKVSCKTSGYTFDDYGVTWVRQAPGQGLEWMGWISAYSGNTFYARKFQGRVTMTTDPSTRTAYMELRSLRSDDTAVYFCARDRGLAINGVVFPYFGLDVWGQGTTVTVSS
VL: ELTQSPVSLPVTPGEPASISCRSSQSLLHSNGNHYLDWYLQKPGQSPQLLMYLGSNRASGVPDRFSGSGSGTDFTLKISRVEAEDVGVYYCMQGLQTPWTFGQGTKVEIKR
notes: also called G IgG
- EC50 [12]: 1.6 nM
- EC50 [13]: 3.1 nM
